In PMC12312033:

Assays:
Test in all cases: NMR
Settings in all cases: 286 K (pH measured at 21 °C), none, MilliQ water with 3.2 mM DSS-d6 and 0.13 mM EDTA, pH adjusted with NaOH/HCl, random coil
[1] = biological target: Glu21 (UniProt position 72, …)
[2] = biological target: Glu17 (UniProt position 68, …)
[3] = biological target: Glu24 (UniProt position 75, …)
[4] = biological target: Glu3 (position 3, ---GGEGG---)
[5] = 50 mM CaCl2, total ionic strength not stated, 50 mM CaCl2 (5-fold excess over 10 mM peptide)
[6] = not stated (no added salt; varies with NaOH/HCl additions), no Ca2+, 10 mM peptide

Row | Protein | pKa [1, 5] | pKa [1, 6] | pKa [2, 5] | pKa [2, 6] | pKa [3, 5] | pKa [3, 6] | pKa [4, 5] | pKa [4, 6]
1 | PLEPRREVSELN [Osteocalcin P15-N26 peptide, uncarboxylated (Glu) form (peptide 5) (Homo sapiens; C23S)] | 4.28 | 4.33 | 4.25 | 4.26 | 4.20 | 4.19 | – | –
2 | GGEGG [Model peptide 1, Ac-GGEGG-NH2 (synthetic)] | – | – | – | – | – | – | 4.30 | 4.34
